Measurements published in US20230272073A1 (AVA LIFESCIENCE, published 2023).

Target: T1, soluble recombinant version of the IGLV3-21^R110-harboring B-cell receptor, produced as monomeric human IgM (human)
T1 construct: 170.5 kDa, made by transient expression in 293-HEK cells; It was the analyte in solution in BLI; also called soluble IGLV3-21^R110 B-cell receptor; soluble BCR-fragment
Experiment: BLI (Octet)
Description: Kinetic assays were performed by first immobilizing the anti IGLV3-21^R110 antibodies onto biosensors through an indirect capturing reagent, anti-human IgG Fc antibody. Anti IGLV3-21^R110 antibodies were loaded at a concentration of 0.01875 μg/ml to generate an anti IGLV3-21^R110 antibody capture level of between 0.30 and 0.34 nm. […] The anti IGLV3-21^R110 antibody capture biosensors were then submerged in wells containing the different concentrations of the soluble BCR-fragment for 900 seconds (association stage) followed by a dissociation step of 1200 seconds in running buffer. Steps were performed at a constant shake speed of 1000 rpm. All reagents were used as described by the manufacturer. Sensorgrams were generated after double reference correction (buffer and blank sensors) to compensate for both the natural dissociation of the capture anti IGLV3-21^R110 antibody and also non-specific binding of the soluble BCR-fragment to the sensor surface. […] (KD) were calculated based on the ratio of association (kₐ) and dissociation rate (kd) constants, obtained by fitting sensorgrams with a first order 1:1 binding model using the Fortebio Data Analysis software (Satorius).
For the KD values of all humanized antibodies, see Table 3.

T1 sequence (heavy, as listed by the source limits assumed, chain 1 of 2): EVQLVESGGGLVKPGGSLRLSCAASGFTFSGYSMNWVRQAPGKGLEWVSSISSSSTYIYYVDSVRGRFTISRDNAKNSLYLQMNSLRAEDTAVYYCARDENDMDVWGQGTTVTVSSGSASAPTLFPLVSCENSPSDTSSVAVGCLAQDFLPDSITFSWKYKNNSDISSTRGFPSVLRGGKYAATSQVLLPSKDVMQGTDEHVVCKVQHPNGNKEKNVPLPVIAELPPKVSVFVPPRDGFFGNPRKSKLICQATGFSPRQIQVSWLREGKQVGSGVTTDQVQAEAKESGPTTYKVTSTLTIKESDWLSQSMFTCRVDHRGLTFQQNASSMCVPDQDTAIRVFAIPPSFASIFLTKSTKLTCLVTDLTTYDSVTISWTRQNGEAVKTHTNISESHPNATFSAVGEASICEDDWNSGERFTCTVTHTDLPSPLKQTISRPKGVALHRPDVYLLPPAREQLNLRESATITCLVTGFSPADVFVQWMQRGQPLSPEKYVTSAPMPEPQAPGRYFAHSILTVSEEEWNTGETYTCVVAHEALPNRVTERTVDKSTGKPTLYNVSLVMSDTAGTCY
T1 sequence (light, as listed by the source limits assumed, chain 2 of 2): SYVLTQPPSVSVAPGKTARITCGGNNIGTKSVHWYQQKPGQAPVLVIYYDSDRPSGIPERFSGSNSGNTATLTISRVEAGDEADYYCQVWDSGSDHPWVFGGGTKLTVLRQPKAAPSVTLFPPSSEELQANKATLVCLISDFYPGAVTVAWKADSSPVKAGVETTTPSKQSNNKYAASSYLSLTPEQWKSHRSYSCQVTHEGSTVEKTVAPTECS

B1: HC7-LC6 (antibody, human IgG1, kappa, V domains shown)
VH: QVQLQESGPGLVKPSETLSLTCTVSGFSLTSYGIHWIRQSPGRGLEWIGVIWRGGGTDSNAAFMSRITISRDTSKTQVSLKLGSVTAADTAIYYCARSRYDEEESMNYWGQGTSVTVSS
VL: EIVLTQSPSSLSASVGDSVTITCRASGNIHSYLAWYQQKPGKAPKLLIYNAKTLADGVPSRFSGSGSGTQYTLTISSLQPEDFATYYCQHFWNTPPTFGAGTKLELKR
notes: Humanized antibody, human IgG1 / kappa
fold of dissociation constant relative to chimeric antibody HC0-LC0: ≤ 2 fold
